Reference: publication PMC13376213 (Nature Communications, 2026)
Ends that are not written are not given here.

Molecular target: USP11 tandem DUSP-UBL domain, tag cleaved (for FP) (human)
Test: fluorescence polarisation; saturation or displacement not stated for this experiment; 50 mM phosphate buffer pH 7.4, room temperature
Conditions: both partners purified

Chain of USP11 tandem DUSP-UBL domain, tag cleaved (for FP) (human) (chain, as listed by the source): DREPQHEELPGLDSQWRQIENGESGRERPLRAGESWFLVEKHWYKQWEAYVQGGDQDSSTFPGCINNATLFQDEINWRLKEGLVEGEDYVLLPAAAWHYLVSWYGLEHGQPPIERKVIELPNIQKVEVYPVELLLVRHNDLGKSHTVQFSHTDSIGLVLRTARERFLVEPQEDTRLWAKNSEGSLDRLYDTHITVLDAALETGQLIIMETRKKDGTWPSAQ

SAVTYPDWIGQSYSEV-NH2 (also: N-terminus FITC-labeled or acetylated, not given here which) [ORAI1 peptide used for FP] was tested, and the Kd was 200 to 300 µM.
